Here are results for two molecules from patent US20110065652A1.

Bridge positions count the residues as written; N and C are the ends. Square brackets hold non-standard residues; d marks the D form. Orn = NCCC[C@H](N)C(=O)O; Dab = NCC[C@H](N)C(=O)O

Assay [1] deals with human recombinant melanocortin-3 receptor (hMC3-R) (human) (UniProt P41968). The experiment in a line: competitive binding against labelled NDP-α-MSH (I125 or Eu), HEK-293 hMC3-R membranes.
Assay [2] addresses human recombinant melanocortin-4 receptor (hMC4-R) (human) (UniProt P32245). The experiment in a line: competitive binding against [I125]-NDP-α-MSH, HEK-293 hMC4-R membranes.
Assay [3] addresses melanocortin-1 receptor (MC1-R), endogenous in B-16 mouse melanoma cells (mouse) (UniProt Q01727). The experiment in a line: competitive binding against [I125]-NDP-α-MSH, B-16 mouse melanoma membranes.
Assay [4] addresses human recombinant melanocortin-5 receptor (hMC5-R) (human) (UniProt P33032). The experiment in a line: competitive binding against Eu-NDP-α-MSH, HEK-293 hMC5-R membranes.
The target in assay [5] is human recombinant melanocortin-4 receptor (hMC4-R) (human) (UniProt P32245). Nature of the assay: cell-based or functional assay.
Sequence of human recombinant melanocortin-4 receptor (hMC4-R) (human) (P32245 whole entry): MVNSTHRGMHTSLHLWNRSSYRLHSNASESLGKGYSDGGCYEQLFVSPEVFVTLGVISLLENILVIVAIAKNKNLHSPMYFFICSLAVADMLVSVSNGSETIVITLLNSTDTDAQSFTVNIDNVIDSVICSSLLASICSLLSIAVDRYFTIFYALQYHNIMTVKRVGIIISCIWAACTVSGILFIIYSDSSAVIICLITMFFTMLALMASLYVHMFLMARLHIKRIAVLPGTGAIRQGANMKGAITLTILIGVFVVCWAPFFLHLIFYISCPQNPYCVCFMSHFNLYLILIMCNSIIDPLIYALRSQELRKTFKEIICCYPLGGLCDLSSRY

Sequence of human recombinant melanocortin-3 receptor (hMC3-R) (human) (P41968 whole entry): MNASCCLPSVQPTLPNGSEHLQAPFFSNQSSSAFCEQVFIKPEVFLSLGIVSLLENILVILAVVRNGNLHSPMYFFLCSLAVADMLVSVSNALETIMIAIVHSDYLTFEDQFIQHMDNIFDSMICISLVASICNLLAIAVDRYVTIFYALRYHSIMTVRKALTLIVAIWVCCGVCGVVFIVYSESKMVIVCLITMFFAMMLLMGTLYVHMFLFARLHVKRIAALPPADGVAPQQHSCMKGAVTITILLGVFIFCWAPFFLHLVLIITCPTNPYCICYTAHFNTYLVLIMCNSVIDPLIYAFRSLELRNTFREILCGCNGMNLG
Sequence of human recombinant melanocortin-5 receptor (hMC5-R) (human) (P33032 whole entry): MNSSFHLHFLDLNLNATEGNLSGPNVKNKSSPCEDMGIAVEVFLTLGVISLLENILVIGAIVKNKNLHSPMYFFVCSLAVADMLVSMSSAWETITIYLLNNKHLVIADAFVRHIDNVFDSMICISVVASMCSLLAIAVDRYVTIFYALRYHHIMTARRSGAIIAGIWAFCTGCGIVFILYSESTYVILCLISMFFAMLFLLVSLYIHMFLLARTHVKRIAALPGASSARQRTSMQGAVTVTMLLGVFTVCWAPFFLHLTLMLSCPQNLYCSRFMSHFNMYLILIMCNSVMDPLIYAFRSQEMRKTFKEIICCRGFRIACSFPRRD
Sequence of melanocortin-1 receptor (MC1-R), endogenous in B-16 mouse melanoma cells (mouse) (Q01727 whole entry): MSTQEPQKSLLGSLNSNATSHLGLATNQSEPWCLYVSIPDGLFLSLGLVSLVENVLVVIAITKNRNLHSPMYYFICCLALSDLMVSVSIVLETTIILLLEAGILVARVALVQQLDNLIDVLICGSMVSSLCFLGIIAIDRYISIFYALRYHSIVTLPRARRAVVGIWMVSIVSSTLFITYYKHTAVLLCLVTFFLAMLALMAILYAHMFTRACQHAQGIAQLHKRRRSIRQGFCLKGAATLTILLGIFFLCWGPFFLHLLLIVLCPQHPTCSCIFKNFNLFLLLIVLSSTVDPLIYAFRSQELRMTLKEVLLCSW

Regarding Ac-RE[Dab][dF]RW[Orn]-OH (lactam 2-7; also: acetate and TFA salts) [cyclic peptide of Example 8.4, Ac-Arg-cyclo(Glu-Dab-D-Phe-Arg-Trp-Orn)-OH], the Ki – broadly, the equilibrium dissociation constant of an inhibitor or competing ligand from its target – stood at 410 nM in assay [1], 8 nM in assay [2], 4 nM in assay [3] and 2370 nM in assay [4]. Further, the intrinsic activity (cAMP, NDP-α-MSH is 100%) in assay [5] turned out to be 91%.

Ac-RE[Dab][dF]RW[Orn]-NH2 (lactam 2-7; also: TFA salt) [cyclic peptide of Example 8.3, Ac-Arg-cyclo(Glu-Dab-D-Phe-Arg-Trp-Orn)-NH2]: the Ki in assay [1] stood at 74 nM; in assay [2] it was 0.65 nM; in assay [3], 1 nM; in assay [4] it was 300 nM. The EC50 (cAMP accumulation in HEK-293 cells expressing hMC4-R) in assay [5] was 0.3 nM. Moreover, in assay [5], the intrinsic activity (cAMP, NDP-α-MSH is 100%) was found to be 94%.
